From publication PMC3352095, “Structure and function of FusB: an elongation factor G-binding fusidic acid resistance protein active in ribosomal translocation and recycling” (Open Biology, 2012) come the findings set out here.

The target of one assay is T1, S. aureus EF-G (Staphylococcus aureus, UniProt P68790).
T1 construct: gene fusA; full-length wild type, recombinant; assayed on E. coli 70S ribosomes with E. coli translation factors
Kind of assay: tripeptide (fMet-Phe-Phe) formation, quenched at […] s, HPLC. The format is biochemical.

For assay [1], the target named is S. aureus elongation factor G (S. aureus) (UniProt P68790).
Assay [2] shares this target. Kind of assay: SEC; 2 nmol EF-G (wild-type or hybrid) with or without 4 nmol FusB (twofold excess) in 100 µl gel filtration buffer (20 mM Tris pH 7.8, 300 mM NaCl) on Superdex200 10/300; shift in elution volume of the EF-G peak as read-out; hybrid G also with 2.5-fold excess of FusB.
For assay [3] the target is unchanged. This is another data set of the same source.
Assay [4] shares this target. This is another data set of the same source.

On to `CC(=O)O[C@H]1C[C@@]2(C)[C@@H](C[C@@H](O)[C@H]3[C@@]4(C)CC[C@@H](O)[C@@H](C)[C@@H]4CC[C@@]32C)/C1=C(\CCC=C(C)C)C(=O)O` [FA, fusidic acid], for which at 150 µM the inhibition at S. aureus EF-G was 50%.
The compound FusB (natural protein) registered a rate of splitting of the post-termination complex by S. aureus EF-G and RRF (Rayleigh light scattering) with FA 10 µM and FusB 1 µM (0.15 s^-1 without FA; blocked with FA alone) in assay [1] of 0.02 s⁻¹. Moreover, the stoichiometry N (commonly the number of molecules, sites or subunits per partner or assembly) in assay [2] is 1. The compound further came in with an extent of tripeptide formation in 10 s with S. aureus EF-G, FA 150 µM (50 per cent with FA alone), FusB 1 µM in assay [3] of 75 per cent. This compound also registered a multiple- and single-round luciferase synthesis in a reconstituted E. coli transcription-translation system with S. aureus EF-G, FA 20 µM, FusB 1 µM; increase against the reactions with only FA in assay [4] of under 5 fold.
